# T1: VEGF antigen as co-crystallised with the bH1-Fab H3 variants (Homo sapiens, VEGF-A residues 1-110 of …)
# T1 construct: VEGF-A, human
# T1 chain: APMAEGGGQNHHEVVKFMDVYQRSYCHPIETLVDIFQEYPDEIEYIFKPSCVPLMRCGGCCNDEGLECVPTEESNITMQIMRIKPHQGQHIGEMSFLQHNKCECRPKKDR
# Target: T1, VEGF antigen as co-crystallised with …
# Assay: crystal structure; co-crystallization of bH1-Fab H3 variants with the VEGF antigen and X-ray diffraction; methods in Shi et al. (in preparation)
# Details: both partners purified
row,Binder,binding result
1,"bH1 Fab H3 variant 14_0130 (Fab, V domains shown, also in PDB 7KF1; also called design 14_0130; source: CHO-3E7, co-transfected, purified from supernatant (HisTrap IMAC, SEC Superdex-200)) VH: EVQLVESGGGLVQPGGSLRLSCAASGFNIKDTYIHWVRQAPGKGLEWVARIYPTNGYTRYADSVKGRFTISADTSKNTAYLQMNSLRAEDTAVYYCAKLGIGYYYYGMDVWGQGTLVTVSS VL: DIQMTQSPSSLSASVGDRVTITCRASQDIPRSISGYVAWYQQKPGKAPKLLIYWGSYLYSGVPSRFSGSGSGTDFTLTISSLQPEDFATYYCQQHYTTPPTFGQGTKVEIK",binds
2,"bH1 Fab H3 variant 12_0327 (Fab, V domains shown, also in PDB 7KF2; also called design 12_0327; source: CHO-3E7, co-transfected, purified from supernatant (HisTrap IMAC, SEC Superdex-200)) VH: EVQLVESGGGLVQPGGSLRLSCAASGFNIKDTYIHWVRQAPGKGLEWVARIYPTNGYTRYADSVKGRFTISADTSKNTAYLQMNSLRAEDTAVYYCARGRKYSSSFDYWGQGTLVTVSS VL: DIQMTQSPSSLSASVGDRVTITCRASQDIPRSISGYVAWYQQKPGKAPKLLIYWGSYLYSGVPSRFSGSGSGTDFTLTISSLQPEDFATYYCQQHYTTPPTFGQGTKVEIK",binds
3,"bH1 Fab H3 variant 16_0325 (Fab, V domains shown, also in PDB 7KEZ; also called design 16_0325; source: CHO-3E7, co-transfected, purified from supernatant (HisTrap IMAC, SEC Superdex-200)) VH: EVQLVESGGGLVQPGGSLRLSCAASGFNIKDTYIHWVRQAPGKGLEWVARIYPTNGYTRYADSVKGRFTISADTSKNTAYLQMNSLRAEDTAVYYCARGGAVAGTGVYYFDYWGQGTLVTVSS VL: DIQMTQSPSSLSASVGDRVTITCRASQDIPRSISGYVAWYQQKPGKAPKLLIYWGSYLYSGVPSRFSGSGSGTDFTLTISSLQPEDFATYYCQQHYTTPPTFGQGTKVEIK",binds
4,"bH1 Fab H3 variant 13_0346 (Fab, V domains shown, also in PDB 7KF0; also called design 13_0346; source: CHO-3E7, co-transfected, purified from supernatant (HisTrap IMAC, SEC Superdex-200)) VH: EVQLVESGGGLVQPGGSLRLSCAASGFNIKDTYIHWVRQAPGKGLEWVARIYPTNGYTRYADSVKGRFTISADTSKNTAYLQMNSLRAEDTAVYYCARGGSFYYYYMDVWGQGTLVTVSS VL: DIQMTQSPSSLSASVGDRVTITCRASQDIPRSISGYVAWYQQKPGKAPKLLIYWGSYLYSGVPSRFSGSGSGTDFTLTISSLQPEDFATYYCQQHYTTPPTFGQGTKVEIK",binds

# Target: T2, Full-length isoform 165 of human VEGF-A (Homo sapiens, VEGF-A isoform 165, UniProt P15692-4)
# T2 construct: VEGF-A isoform 165, human; Immobilised by amine coupling for SPR; Made in HEK cells, so probably the secreted 165-residue form without signal peptide (surmise); source: HEK, recombinant, purified
# Assay: SPR; Biacore T200, 25 °C, PBS with 0.05% Tween 20 and 3.4 mM EDTA; VEGF-A amine-coupled to a CM-5 chip; Fab injected in single cycle kinetics with five increasing concentrations; double referenced; fit to a 1:1 Langmuir binding model
# Details: both partners purified
# T2 sequence (P15692 other isoform, or with tags, fused parts or gaps): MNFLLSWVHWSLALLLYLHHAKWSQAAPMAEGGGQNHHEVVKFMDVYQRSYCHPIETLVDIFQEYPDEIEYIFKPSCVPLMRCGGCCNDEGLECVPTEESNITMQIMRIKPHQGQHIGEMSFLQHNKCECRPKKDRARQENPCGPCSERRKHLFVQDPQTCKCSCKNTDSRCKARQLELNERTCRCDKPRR
Binder,Kd,binding result
"bH1 Fab H3 variant 14_0130 (Fab, V domains shown, also in PDB 7KF1; also called design 14_0130; source: CHO-3E7, co-transfected, purified from supernatant (HisTrap IMAC, SEC Superdex-200)) VH: EVQLVESGGGLVQPGGSLRLSCAASGFNIKDTYIHWVRQAPGKGLEWVARIYPTNGYTRYADSVKGRFTISADTSKNTAYLQMNSLRAEDTAVYYCAKLGIGYYYYGMDVWGQGTLVTVSS VL: DIQMTQSPSSLSASVGDRVTITCRASQDIPRSISGYVAWYQQKPGKAPKLLIYWGSYLYSGVPSRFSGSGSGTDFTLTISSLQPEDFATYYCQQHYTTPPTFGQGTKVEIK",2.8 µM,–
"bH1 Fab H3 variant 14_0822 (Fab, V domains shown, source: CHO-3E7, co-transfected, purified from supernatant (HisTrap IMAC, SEC Superdex-200)) VH: EVQLVESGGGLVQPGGSLRLSCAASGFNIKDTYIHWVRQAPGKGLEWVARIYPTNGYTRYADSVKGRFTISADTSKNTAYLQMNSLRAEDTAVYYCGRSGPRLGMYYFDFWGQGTLVTVSS VL: DIQMTQSPSSLSASVGDRVTITCRASQDIPRSISGYVAWYQQKPGKAPKLLIYWGSYLYSGVPSRFSGSGSGTDFTLTISSLQPEDFATYYCQQHYTTPPTFGQGTKVEIK",> 50 µM,"no binding (tested: > 50,000 nM)"
"bH1 Fab H3 variant 12_0327 (Fab, V domains shown, also in PDB 7KF2; also called design 12_0327; source: CHO-3E7, co-transfected, purified from supernatant (HisTrap IMAC, SEC Superdex-200)) VH: EVQLVESGGGLVQPGGSLRLSCAASGFNIKDTYIHWVRQAPGKGLEWVARIYPTNGYTRYADSVKGRFTISADTSKNTAYLQMNSLRAEDTAVYYCARGRKYSSSFDYWGQGTLVTVSS VL: DIQMTQSPSSLSASVGDRVTITCRASQDIPRSISGYVAWYQQKPGKAPKLLIYWGSYLYSGVPSRFSGSGSGTDFTLTISSLQPEDFATYYCQQHYTTPPTFGQGTKVEIK",1.6 µM,–
"bH1 Fab H3 variant 14_0480 (Fab, V domains shown, source: CHO-3E7, co-transfected, purified from supernatant (HisTrap IMAC, SEC Superdex-200)) VH: EVQLVESGGGLVQPGGSLRLSCAASGFNIKDTYIHWVRQAPGKGLEWVARIYPTNGYTRYADSVKGRFTISADTSKNTAYLQMNSLRAEDTAVYYCARGLERSGNYYLDYWGQGTLVTVSS VL: DIQMTQSPSSLSASVGDRVTITCRASQDIPRSISGYVAWYQQKPGKAPKLLIYWGSYLYSGVPSRFSGSGSGTDFTLTISSLQPEDFATYYCQQHYTTPPTFGQGTKVEIK",2.72 µM,–
"bH1 Fab H3 variant 14_0129 (Fab, V domains shown, source: CHO-3E7, co-transfected, purified from supernatant (HisTrap IMAC, SEC Superdex-200)) VH: EVQLVESGGGLVQPGGSLRLSCAASGFNIKDTYIHWVRQAPGKGLEWVARIYPTNGYTRYADSVKGRFTISADTSKNTAYLQMNSLRAEDTAVYYCAKLGGQGSYYHFDYWGQGTLVTVSS VL: DIQMTQSPSSLSASVGDRVTITCRASQDIPRSISGYVAWYQQKPGKAPKLLIYWGSYLYSGVPSRFSGSGSGTDFTLTISSLQPEDFATYYCQQHYTTPPTFGQGTKVEIK",3.48 µM,–
"bH1 Fab H3 variant 16_0460 (Fab, V domains shown, also called design 16_0460; source: CHO-3E7, co-transfected, purified from supernatant (HisTrap IMAC, SEC Superdex-200)) VH: EVQLVESGGGLVQPGGSLRLSCAASGFNIKDTYIHWVRQAPGKGLEWVARIYPTNGYTRYADSVKGRFTISADTSKNTAYLQMNSLRAEDTAVYYCARPSGGSRSWLYYFDYWGQGTLVTVSS VL: DIQMTQSPSSLSASVGDRVTITCRASQDIPRSISGYVAWYQQKPGKAPKLLIYWGSYLYSGVPSRFSGSGSGTDFTLTISSLQPEDFATYYCQQHYTTPPTFGQGTKVEIK",4.5 µM,–
"bH1 Fab H3 variant 14_0490 (Fab, V domains shown, source: CHO-3E7, co-transfected, purified from supernatant (HisTrap IMAC, SEC Superdex-200)) VH: EVQLVESGGGLVQPGGSLRLSCAASGFNIKDTYIHWVRQAPGKGLEWVARIYPTNGYTRYADSVKGRFTISADTSKNTAYLQMNSLRAEDTAVYYCARGNEAGYYYGMDVWGQGTLVTVSS VL: DIQMTQSPSSLSASVGDRVTITCRASQDIPRSISGYVAWYQQKPGKAPKLLIYWGSYLYSGVPSRFSGSGSGTDFTLTISSLQPEDFATYYCQQHYTTPPTFGQGTKVEIK",3.59 µM,–
"bH1 Fab H3 variant 14_0622 (Fab, V domains shown, source: CHO-3E7, co-transfected, purified from supernatant (HisTrap IMAC, SEC Superdex-200)) VH: EVQLVESGGGLVQPGGSLRLSCAASGFNIKDTYIHWVRQAPGKGLEWVARIYPTNGYTRYADSVKGRFTISADTSKNTAYLQMNSLRAEDTAVYYCARNGGDSYSGYFQHWGQGTLVTVSS VL: DIQMTQSPSSLSASVGDRVTITCRASQDIPRSISGYVAWYQQKPGKAPKLLIYWGSYLYSGVPSRFSGSGSGTDFTLTISSLQPEDFATYYCQQHYTTPPTFGQGTKVEIK",4.97 µM,–
"bH1 Fab H3 variant 14_0688 (Fab, V domains shown, source: CHO-3E7, co-transfected, purified from supernatant (HisTrap IMAC, SEC Superdex-200)) VH: EVQLVESGGGLVQPGGSLRLSCAASGFNIKDTYIHWVRQAPGKGLEWVARIYPTNGYTRYADSVKGRFTISADTSKNTAYLQMNSLRAEDTAVYYCARSGRDAYNYYFDSWGQGTLVTVSS VL: DIQMTQSPSSLSASVGDRVTITCRASQDIPRSISGYVAWYQQKPGKAPKLLIYWGSYLYSGVPSRFSGSGSGTDFTLTISSLQPEDFATYYCQQHYTTPPTFGQGTKVEIK",3.6 µM,–
"parental bH1 Fab (Fab, V domains shown, heavy chain of the bH1 Fab; light chain of the bH1 Fab; also called bH1 antibody; parental antibody; source: CHO-3E7, co-transfected, purified from supernatant (HisTrap IMAC, SEC Superdex-200)) VH: not shown VL: DIQMTQSPSSLSASVGDRVTITCRASQDIPRSISGYVAWYQQKPGKAPKLLIYWGSYLYSGVPSRFSGSGSGTDFTLTISSLQPEDFATYYCQQHYTTPPTFGQGTKVEIK",0.1 µM,–
"bH1 Fab H3 variant 13_0346 (Fab, V domains shown, also in PDB 7KF0; also called design 13_0346; source: CHO-3E7, co-transfected, purified from supernatant (HisTrap IMAC, SEC Superdex-200)) VH: EVQLVESGGGLVQPGGSLRLSCAASGFNIKDTYIHWVRQAPGKGLEWVARIYPTNGYTRYADSVKGRFTISADTSKNTAYLQMNSLRAEDTAVYYCARGGSFYYYYMDVWGQGTLVTVSS VL: DIQMTQSPSSLSASVGDRVTITCRASQDIPRSISGYVAWYQQKPGKAPKLLIYWGSYLYSGVPSRFSGSGSGTDFTLTISSLQPEDFATYYCQQHYTTPPTFGQGTKVEIK",0.08 µM,–
"bH1 Fab H3 variant 14_0472 (Fab, V domains shown, source: CHO-3E7, co-transfected, purified from supernatant (HisTrap IMAC, SEC Superdex-200)) VH: EVQLVESGGGLVQPGGSLRLSCAASGFNIKDTYIHWVRQAPGKGLEWVARIYPTNGYTRYADSVKGRFTISADTSKNTAYLQMNSLRAEDTAVYYCARGIAVAGAYYFDYWGQGTLVTVSS VL: DIQMTQSPSSLSASVGDRVTITCRASQDIPRSISGYVAWYQQKPGKAPKLLIYWGSYLYSGVPSRFSGSGSGTDFTLTISSLQPEDFATYYCQQHYTTPPTFGQGTKVEIK",59 µM,–
"bH1 Fab H3 variant 16_0102 (Fab, V domains shown, source: CHO-3E7, co-transfected, purified from supernatant (HisTrap IMAC, SEC Superdex-200)) VH: EVQLVESGGGLVQPGGSLRLSCAASGFNIKDTYIHWVRQAPGKGLEWVARIYPTNGYTRYADSVKGRFTISADTSKNTAYLQMNSLRAEDTAVYYCAKGWEGTTVTLTPVDYWGQGTLVTVSS VL: DIQMTQSPSSLSASVGDRVTITCRASQDIPRSISGYVAWYQQKPGKAPKLLIYWGSYLYSGVPSRFSGSGSGTDFTLTISSLQPEDFATYYCQQHYTTPPTFGQGTKVEIK",50 µM,–
"bH1 Fab H3 variant 15_0485 (Fab, V domains shown, source: CHO-3E7, co-transfected, purified from supernatant (HisTrap IMAC, SEC Superdex-200)) VH: EVQLVESGGGLVQPGGSLRLSCAASGFNIKDTYIHWVRQAPGKGLEWVARIYPTNGYTRYADSVKGRFTISADTSKNTAYLQMNSLRAEDTAVYYCARHGVRGYYYYYMDVWGQGTLVTVSS VL: DIQMTQSPSSLSASVGDRVTITCRASQDIPRSISGYVAWYQQKPGKAPKLLIYWGSYLYSGVPSRFSGSGSGTDFTLTISSLQPEDFATYYCQQHYTTPPTFGQGTKVEIK",0.31 µM,–
"bH1 Fab H3 variant 14_0905 (Fab, V domains shown, source: CHO-3E7, co-transfected, purified from supernatant (HisTrap IMAC, SEC Superdex-200)) VH: EVQLVESGGGLVQPGGSLRLSCAASGFNIKDTYIHWVRQAPGKGLEWVARIYPTNGYTRYADSVKGRFTISADTSKNTAYLQMNSLRAEDTAVYYCVRGGYLRDYYGMDVWGQGTLVTVSS VL: DIQMTQSPSSLSASVGDRVTITCRASQDIPRSISGYVAWYQQKPGKAPKLLIYWGSYLYSGVPSRFSGSGSGTDFTLTISSLQPEDFATYYCQQHYTTPPTFGQGTKVEIK",5 µM,–

# Reference: PMC8560851 (Scientific Reports, 2021)
